Assay results reported in US7138254.

Tested on: cytochrome C

Sequence of trypsin (P00760 24-246): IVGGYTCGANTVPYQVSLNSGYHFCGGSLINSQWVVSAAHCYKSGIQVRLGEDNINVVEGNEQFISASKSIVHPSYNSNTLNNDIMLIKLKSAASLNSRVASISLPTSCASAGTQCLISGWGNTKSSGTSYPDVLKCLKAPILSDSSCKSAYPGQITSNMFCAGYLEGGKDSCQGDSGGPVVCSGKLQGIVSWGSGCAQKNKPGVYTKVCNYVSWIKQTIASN
Sequence of biotin conjugated trypsin (P00760 24-246): as above

| Substance | peptide maps (capillary electrophoresis of FITC labeled digest), three runs over two weeks | peptide profiles of digested cytochrome C (capillary electrophoresis of FITC labeled digest) |
| --- | --- | --- |
| trypsin | the control capillary cassette showed some protein digestion only in the first run, but no protein digestion in the second or the third run | The obtained peptide profiles of digested cytochrome C are consistent and reproducible between each run and comparable to data obtained with full volume reactions |
| biotin conjugated trypsin | all capillaries of the treated cassettes have the same peptide maps in the three runs | the peptide profiles of digested cytochrome C obtained from this approach and the approach described in Example 26 are consistent and reproducible |
